Test results from patent publication US20230293638A1 (Eli Lilly, published 2023).
Numbered stars: 1 amine (or outer) side, 2 acyl side, 3 side chain; on linkers, the order of the positions; unused ones are H or OH. Square brackets hold non-standard residues; d marks the D form. Side chains are listed from the residue outwards. Ends that are not written are not given here. * marks the point of attachment. C20 diacid = O=C(O)CCCCCCCCCCCCCCCCCCC(=O)*; γGlu = O=C(O)[C@H](CCC(=O)[*:2])N[*:1]; AEEA = NCCOCCOCC(=O)O; Aib = CC(C)(N)C(=O)O

Target: human GLP-1 receptor (human, UniProt P43220 24-463)
Experiment: cell-based or functional assay

Binder	hGLPIR cAMP EC50 ratio
YXEGTXTSDYSIXLDEKAQXEFIXYLIEGGPSSGAPPPS (Aib2; αMeF(2F)6; αMeL13; K17((2-[2-(2-Amino-ethoxy)-ethoxy]-acetyl)2-(γGlu)-CO-(CH2)16-CO2H); Aib20; D-Glu24; C-terminal NH2) [Peptide 221]	0.795
YXEGTXTSDLSIXLDXKAQXEFIXXLIEGGPSSGAPPPS (not fully specified; Aib2; αMeF(2F)6; αMeL13; Orn16; K17((2-[2-(2-Amino-ethoxy)-ethoxy]-acetyl)2-(γGlu)-CO-(CH2)16-CO2H); Aib20; D-Glu24; αMeY25; C-terminal NH2) [Peptide 238]	1.15
YXEGTXTSDYSIXLDEKAQXEFIXYLIEGGPSSGAPPPS (Aib2; αMeF6; αMeL13; K17((2-[2-(2-Amino-ethoxy)-ethoxy]-acetyl)2-(γGlu)-CO-(CH2)18-CO2H); Aib20; D-Glu24; C-terminal NH2) [Peptide 227]	1.07
YXEGTXTSDLSIXLDXKAQXAFIXXLIEGGPSSGAPPPS (not fully specified; Aib2; αMeF(2F)6; αMeL13; Orn16; K17((2-[2-(2-Amino-ethoxy)-ethoxy]-acetyl)2-(γGlu)-CO-(CH2)16-CO2H); Aib20; D-Glu24; αMeY25; C-terminal NH2) [Peptide 244]	1.29
YXEGTXTSDYSIXLDEKAQXEFIXXLIEGGPSSGAPPPS (Aib2; αMeF(2F)6; αMeL13; K17((2-[2-(2-Amino-ethoxy)-ethoxy]-acetyl)2-(γGlu)-CO-(CH2)18-CO2H); Aib20; D-Glu24; αMeY25; C-terminal NH2) [Peptide 222]	1.55
YXEGTXTSDYSIXLDHKAQXEFIXYLIEGGPSSGAPPPS (Aib2; αMeF(2F)6; αMeL13; K17((2-[2-(2-Amino-ethoxy)-ethoxy]-acetyl)2-(γGlu)-CO-(CH2)18-CO2H); Aib20; D-Glu24; C-terminal NH2) [Peptide 230]	0.599
YXEGTXTSDXSIXLDXKAQXEFIXYLIEGGPSSGAPPPS (not fully specified; Aib2; αMeF(2F)6; 4Pal10; αMeL13; Dab16; K17((2-[2-(2-Amino-ethoxy)-ethoxy]-acetyl)2-(γGlu)-CO-(CH2)16-CO2H); Aib20; D-Glu24; C-terminal NH2) [Peptide 233]	0.535
YXEGTXTSDVSIXLDXKAQXAFIXXLIEGGPSSGAPPPS (not fully specified; Aib2; αMeF(2F)6; αMeL13; Orn16; K17((2-[2-(2-Amino-ethoxy)-ethoxy]-acetyl)2-(γGlu)-CO-(CH2)16-CO2H); Aib20; D-Glu24; αMeY25; C-terminal NH2) [Peptide 242]	1.96
YXEGTXTSDYSIXLDEKAQXEFIEXLIEGGPSSGAPPPS (Aib2; αMeF(2F)6; αMeL13; K17((2-[2-(2-Amino-ethoxy)-ethoxy]-acetyl)2-(γGlu)-CO-(CH2)18-CO2H); Aib20; αMeY25; C-terminal NH2) [Peptide 223]	0.962
YXEGTXTSDYSIXLDEKAQXEFIXYLIEGGPSSGAPPPS (Aib2; αMeF(2F)6; Aib13; K17((2-[2-(2-Amino-ethoxy)-ethoxy]-acetyl)2-(γGlu)-CO-(CH2)18-CO2H); Aib20; D-Glu24; C-terminal NH2) [Peptide 224]	1.06
YXEGTXTSDLSIXLDXKAQXTFIXXLIEGGPSSGAPPPS (not fully specified; Aib2; αMeF(2F)6; αMeL13; Orn16; K17((2-[2-(2-Amino-ethoxy)-ethoxy]-acetyl)2-(γGlu)-CO-(CH2)16-CO2H); Aib20; D-Glu24; αMeY25; C-terminal NH2) [Peptide 243]	1.22
YXEGTXTSDXSIXLDXKAQXTFIXXLIEGGPSSGAPPPS (not fully specified; Aib2; αMeF(2F)6; 4Pal10; αMeL13; Orn16; K17((2-[2-(2-Amino-ethoxy)-ethoxy]-acetyl)2-(γGlu)-CO-(CH2)16-CO2H); Aib20; D-Glu24; αMeY25; C-terminal NH2) [Peptide 239]	0.987
YXEGTXTSDASIXLDXKAQXAFIXXLIEGGPSSGAPPPS (not fully specified; Aib2; αMeF(2F)6; αMeL13; Orn16; K17((2-[2-(2-Amino-ethoxy)-ethoxy]-acetyl)2-(γGlu)-CO-(CH2)16-CO2H); Aib20; D-Glu24; αMeY25; C-terminal NH2) [Peptide 246]	2.56
YXEGTXTSDVSIXLDXKAQXTFIXXLIEGGPSSGAPPPS (not fully specified; Aib2; αMeF(2F)6; αMeL13; Orn16; K17((2-[2-(2-Amino-ethoxy)-ethoxy]-acetyl)2-(γGlu)-CO-(CH2)16-CO2H); Aib20; D-Glu24; αMeY25; C-terminal NH2) [Peptide 241]	1.89
YXEGTXTSDYSIXLDXKAQXEFIXXLIEGGPSSGAPPPS (not fully specified; Aib2; αMeF(2F)6; αMeL13; Orn16; K17((2-[2-(2-Amino-ethoxy)-ethoxy]-acetyl)2-(γGlu)-CO-(CH2)16-CO2H); Aib20; D-Glu24; αMeY25; C-terminal NH2) [Peptide 236]	1.65
YXEGTXTSDYSIXLDEKAQXEFIXYLIEGG (Aib2; αMeF(2F)6; αMeL13; K17((2-[2-(2-Amino-ethoxy)-ethoxy]-acetyl)2-(γGlu)-CO-(CH2)16-CO2H); Aib20; D-Glu24; C-terminal NH2) [Peptide 220]	1.36
Y[Aib]EGTFTSDYSIK([AEEA-AEEA-γGlu-C20 diacid])LDKIAQ[Aib]AFIEYLIEGGPSSGAPPPS-NH2 (N-terminus assumed; SMILES CC[C@H](C)[C@H](NC(=O)[C@H](CCCCN)NC(=O)[C@H](CC(=O)O)NC(=O)[C@H](CC(C)C)NC(=O)[C@H](CCCCNC(=O)COCCOCCNC(=O)COCCOCCNC(=O)CC[C@H](NC(=O)CCCCCCCCCCCCCCCCCCC(=O)O)C(=O)O)NC(=O)[C@@H](NC(=O)[C@H](CO)NC(=O)[C@H](Cc1ccc(O)cc1)NC(=O)[C@H](CC(=O)O)NC(=O)[C@H](CO)NC(=O)[C@@H](NC(=O)[C@H](Cc1ccccc1)NC(=O)[C@@H](NC(=O)CNC(=O)[C@H](CCC(=O)O)NC(=O)C(C)(C)NC(=O)[C@@H](N)Cc1ccc(O)cc1)[C@@H](C)O)[C@@H](C)O)[C@@H](C)CC)C(=O)N[C@@H](C)C(=O)N[C@@H](CCC(N)=O)C(=O)NC(C)(C)C(=O)N[C@@H](C)C(=O)N[C@@H](Cc1ccccc1)C(=O)N[C@H](C(=O)N[C@@H](CCC(=O)O)C(=O)N[C@@H](Cc1ccc(O)cc1)C(=O)N[C@@H](CC(C)C)C(=O)N[C@H](C(=O)N[C@@H](CCC(=O)O)C(=O)NCC(=O)NCC(=O)N1CCC[C@H]1C(=O)N[C@@H](CO)C(=O)N[C@@H](CO)C(=O)NCC(=O)N[C@@H](C)C(=O)N1CCC[C@H]1C(=O)N1CCC[C@H]1C(=O)N1CCC[C@H]1C(=O)N[C@@H](CO)C(N)=O)[C@@H](C)CC)[C@@H](C)CC) [Peptide 26]	0.238
YXEGTXTSDYSIXLDEKAQXEFIXYLIEGGPSSG (Aib2; αMeF(2F)6; αMeL13; K17((2-[2-(2-Amino-ethoxy)-ethoxy]-acetyl)2-(γGlu)-CO-(CH2)16-CO2H); Aib20; D-Glu24; C-terminal NH2) [Peptide 219]	1.03
YXEGTXTSDYSIXLDKKAQXEFIXYLIEGGPSSG (Aib2; αMeF6; αMeL13; K17((2-[2-(2-Amino-ethoxy)-ethoxy]-acetyl)2-(γGlu)-CO-(CH2)18-CO2H); Aib20; D-Glu24; C-terminal NH2) [Peptide 228]	1.1
Y[Aib]EGTFTSDYSILLDK([AEEA-AEEA-γGlu-C20 diacid])IAQ[Aib]AFIEYLIEGGPSSGAPPPS-NH2 (N-terminus assumed; SMILES CC[C@H](C)[C@H](NC(=O)[C@H](CCCCNC(=O)COCCOCCNC(=O)COCCOCCNC(=O)CC[C@H](NC(=O)CCCCCCCCCCCCCCCCCCC(=O)O)C(=O)O)NC(=O)[C@H](CC(=O)O)NC(=O)[C@H](CC(C)C)NC(=O)[C@H](CC(C)C)NC(=O)[C@@H](NC(=O)[C@H](CO)NC(=O)[C@H](Cc1ccc(O)cc1)NC(=O)[C@H](CC(=O)O)NC(=O)[C@H](CO)NC(=O)[C@@H](NC(=O)[C@H](Cc1ccccc1)NC(=O)[C@@H](NC(=O)CNC(=O)[C@H](CCC(=O)O)NC(=O)C(C)(C)NC(=O)[C@@H](N)Cc1ccc(O)cc1)[C@@H](C)O)[C@@H](C)O)[C@@H](C)CC)C(=O)N[C@@H](C)C(=O)N[C@@H](CCC(N)=O)C(=O)NC(C)(C)C(=O)N[C@@H](C)C(=O)N[C@@H](Cc1ccccc1)C(=O)N[C@H](C(=O)N[C@@H](CCC(=O)O)C(=O)N[C@@H](Cc1ccc(O)cc1)C(=O)N[C@@H](CC(C)C)C(=O)N[C@H](C(=O)N[C@@H](CCC(=O)O)C(=O)NCC(=O)NCC(=O)N1CCC[C@H]1C(=O)N[C@@H](CO)C(=O)N[C@@H](CO)C(=O)NCC(=O)N[C@@H](C)C(=O)N1CCC[C@H]1C(=O)N1CCC[C@H]1C(=O)N1CCC[C@H]1C(=O)N[C@@H](CO)C(N)=O)[C@@H](C)CC)[C@@H](C)CC) [Peptide 29]	0.0671
